Patent US20050186203A1 (published 2005)
Residue numbers refer to the chain shown, from its start.

Legend:
[1] = target: T1, purified full-length human IGF-I receptor (affinity purified); directly coated or biotinylated and captured on … (human, UniProt P08069 31-1367, biotinylated with PEO-maleimide-biotin reagent in the captured format); test: ELISA binding competition with murine EM164 on full-length IGF-I receptor
T1 construct: mature; also called purified human IGF-I receptor; biotinylated human IGF-I receptor
Method: (§1) After equilibration, the bound humanized antibody was detected using a goat-anti-human-Fab′₂-antibody-horseradish peroxidase conjugate. Plots of ([bound murine Ab]/[bound humanized Ab]) vs ([murine Ab]/[humanized Ab]), which theoretically yield a straight line with slope=(K_{d humanized Ab}/K_{d murine Ab}), were used to determine the relative affinities of the humanized and murine antibodies.
(§2) An Immulon-2HB ELISA plate was coated with 100 μL of 5 μg/mL streptavidin per well in carbonate buffer at ambient temperature for 7 h. […] The wells were then washed with TBS-T buffer and incubated with goat-anti-human-Fab′₂-antibody-horseradish peroxidase conjugate for 1 h (100 μL; 1 μg/mL in blocking buffer), followed by washes and detection using ABTS/H₂O₂ substrate at 405 nm.

[2] = target: T1, purified full-length human IGF-I …; test: ELISA binding competition with murine EM164 on captured biotinylated IGF-I receptor
Method: as §1, §2

[3] = target: IGF-I receptor of 3T3 cells (mouse) (mouse, UniProt Q60751 31-1373); test: immunoprecipitation from cell lysate, Western blot
Chain of IGF-I receptor of 3T3 cells (mouse) (Q60751 31-1373 limits assumed): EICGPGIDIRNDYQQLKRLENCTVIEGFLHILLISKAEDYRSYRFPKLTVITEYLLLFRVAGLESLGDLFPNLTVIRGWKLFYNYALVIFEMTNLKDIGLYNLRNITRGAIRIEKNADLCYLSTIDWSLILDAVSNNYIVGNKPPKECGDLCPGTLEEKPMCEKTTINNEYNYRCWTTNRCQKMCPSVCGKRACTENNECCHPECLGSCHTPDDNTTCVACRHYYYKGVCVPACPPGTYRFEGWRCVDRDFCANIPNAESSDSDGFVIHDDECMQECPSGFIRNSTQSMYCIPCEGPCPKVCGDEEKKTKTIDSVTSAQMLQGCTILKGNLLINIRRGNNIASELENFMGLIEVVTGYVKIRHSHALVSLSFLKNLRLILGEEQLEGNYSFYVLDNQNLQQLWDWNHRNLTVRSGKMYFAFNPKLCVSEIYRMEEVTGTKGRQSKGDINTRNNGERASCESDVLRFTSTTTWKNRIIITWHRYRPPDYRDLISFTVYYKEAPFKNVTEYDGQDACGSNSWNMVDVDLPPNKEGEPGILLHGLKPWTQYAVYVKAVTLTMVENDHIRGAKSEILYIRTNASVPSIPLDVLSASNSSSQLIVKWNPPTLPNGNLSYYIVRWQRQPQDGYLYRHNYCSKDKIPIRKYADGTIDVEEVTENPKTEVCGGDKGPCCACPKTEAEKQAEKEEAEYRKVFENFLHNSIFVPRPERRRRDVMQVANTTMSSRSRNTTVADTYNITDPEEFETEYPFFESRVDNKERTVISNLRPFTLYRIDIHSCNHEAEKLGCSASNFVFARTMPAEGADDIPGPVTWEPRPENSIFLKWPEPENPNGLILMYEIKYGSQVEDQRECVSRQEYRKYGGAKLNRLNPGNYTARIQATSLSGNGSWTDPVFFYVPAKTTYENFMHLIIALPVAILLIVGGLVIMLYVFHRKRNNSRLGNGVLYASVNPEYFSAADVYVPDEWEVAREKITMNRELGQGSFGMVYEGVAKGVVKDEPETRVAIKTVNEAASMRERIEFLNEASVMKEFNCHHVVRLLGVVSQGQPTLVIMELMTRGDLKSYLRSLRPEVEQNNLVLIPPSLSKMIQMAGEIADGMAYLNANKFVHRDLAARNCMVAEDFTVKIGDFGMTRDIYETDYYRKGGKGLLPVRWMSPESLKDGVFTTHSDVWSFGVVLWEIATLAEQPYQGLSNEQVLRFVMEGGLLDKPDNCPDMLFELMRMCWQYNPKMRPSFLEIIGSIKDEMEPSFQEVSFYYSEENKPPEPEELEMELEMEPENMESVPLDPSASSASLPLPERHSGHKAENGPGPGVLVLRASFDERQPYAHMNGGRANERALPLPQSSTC

[4] = target: T2, human insulin receptor, overexpressed on 3T3-like cells of IGF-I receptor deficient mice (human, UniProt P06213 28-1382); test: FACS on cells overexpressing human insulin receptor
T2 construct: whole, on cells; also called insulin receptor overexpressing cells
Method: The cells were pelleted by centrifugation and washed with cold FACS buffer by gentle flicking, followed by incubation with goat-anti-mouse-IgG-antibody-FITC conjugate (100 μL; 10 μg/mL in FACS buffer) on ice for 1 h. The cells were pelleted, washed, and resuspended in 120 μL of 1% formaldehyde solution in PBS. The plate was analyzed using a FACSCalibur reader (BD Biosciences).

B1: humanized EM164 antibody version 1.1 (antibody, V domains shown)
VH: QVQLVQSGAEVVKPGASVKLSCKASGYTFTSYWMHWVKQRPGQGLEWIGEINPSNGRTNYNQKFQGKATLTVDKSSSTAYMQLSSLTSEDSAVYYFARGRPDYYGSSKWYFDVWGQGTTVTVS
VL: DVLMTQTPLSLPVSLGDPASISCRSSQSIVHSNVNTYLEWYLQKPGQSPKLLIYKVSNRFSGVPDRFSGSGAGTDFTLRISRVEAEDLGIYYCFQGSHVPPTFGGGTKLEIKR
notes: Expressed transiently in 293T cells; also called huEM164 V1.1; v1.1
- binding result [1]: binds

B2: humanized EM164 antibody version 1.0 (antibody, V domains shown)
VH: B1 VH
VL: B1 VL with L3V, K50R
notes: Expressed transiently in 293T cells; also called huEM164 V1.0; huEM164 v1.0
- binding result [2]: binds

B3: humanized EM164 antibody version 1.2 (antibody, V domains shown)
VH: B1 VH
VL: B1 VL with K50R
notes: Expressed transiently in 293T cells; also called huEM164 V1.2; v1.2
- binding result [1]: binds

B4: murine anti-IGF-I receptor antibody EM164 (antibody, V domains shown)
VH: B1 VH with V5Q, V11L, Q62E, Q65K, G66R, Q116A
VL: B1 VL with P18Q, A72S
notes: also called EM164 antibody; muEM164
- binding result [3]: no binding
- binding result [4]: no binding (tested: 50-100 nM)
